This assay concerns the target T1, LMWK (Homo sapiens, UniProt P01042).
T1 sequence (P01042 19-427 isoform P01042-2 limits assumed): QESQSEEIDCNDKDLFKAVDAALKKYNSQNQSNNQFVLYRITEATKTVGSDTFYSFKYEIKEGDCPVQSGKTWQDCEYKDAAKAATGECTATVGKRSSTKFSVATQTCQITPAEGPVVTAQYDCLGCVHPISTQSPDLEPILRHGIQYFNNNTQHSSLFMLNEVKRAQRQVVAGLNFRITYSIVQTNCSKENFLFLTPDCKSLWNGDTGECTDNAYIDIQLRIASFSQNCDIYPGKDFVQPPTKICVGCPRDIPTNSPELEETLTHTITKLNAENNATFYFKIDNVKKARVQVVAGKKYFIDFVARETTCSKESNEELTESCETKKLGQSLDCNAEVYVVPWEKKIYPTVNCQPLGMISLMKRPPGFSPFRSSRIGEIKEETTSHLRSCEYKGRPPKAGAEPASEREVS
Kind of assay: In vitro activity evaluation based on natural substrates (enzymatic reaction with LMWK, bradykinin quantified by UPLC). It counts as biochemical. Conditions: 37°C, 15min. As for the experimental part: This example compared the enzymatic reaction to produce the effector molecule bradykinin at different ratios of substrate (LMWK) to enzyme (KLK1 or its PEG modified KLK1). The produced effector molecules were separated by reverse phase chromatography, the peak area of the product is calculated, and the curve of bradykinin production with different ratios of substrate to enzyme was drawn. Compare the amount of effector molecules produced by different test samples under the same reaction methods. Through this in vitro method simulating the in vivo effect, the in vivo effects of different tested samples were indirectly compared.
Kb was KLK1 extracted from porcine pancreas. PEG-Kb was PEG10K-modified Kb. PEG10K-hKLK1X1 and PEG-Kb can be prepared according to the conventional method of polyethylene glycol modified drugs.
The samples were mixed according to the following table (in PEG modified samples, the molar mass of the modified active substance was converted). The mixed samples were placed in a 37°C thermostat, incubated for 15min, accurately timed, and the reaction was terminated by adding 50% acetic acid solution according to the volume ratio of 10:1.
After the termination of the reaction, the sample was placed in a desktop centrifuge, centrifuged at 12000rpm for 5min, and the supernatant was taken. Detect with Waters ACQUITY UPLC H-Class, the mobile phase A was 0.1% TFA-H2O, the mobile phase B was 0.1% TFA-ACN, the detection wavelength was 214nm, the column temperature was 30°C, the sample loading volume was 10µl, the flow rate was 0.2ml/min, the running time was 35min, and the running gradient was as follows: Table 3
According to the UPLC chromatograph results of the enzymatic reaction mixture, the chromatographic peak with retention time of 13±0.5min(the peak position of bradykinin) was integrated and summed, and compared with the peak area of per unit mass bradykinin (1mg/ml, loading volume 10µl) to calculate the concentration of bradykinin generated by the enzymatic reaction. The amount of bradykinin produced was calculated according to the total reaction system in Table 2, and finally converted to the amount of bradykinin(µg/mg) produced per milligram of enzyme at each molar ratio.

For the substance “PEG-Kb: PEG10K-modified Kb [reference compound]”, the Bradykinin production (Molar ratio of substrate to enzyme 1: 1) was 11.28 µg/mg (enzyme); the Bradykinin production (Molar ratio of substrate to enzyme 5: 1) was 44.63 µg/mg (enzyme); the Bradykinin production (Molar ratio of substrate to enzyme 10: 1) is given as 79.99 µg/mg (enzyme); the Bradykinin production (Molar ratio of substrate to enzyme 15: 1) is 103.85 µg/mg (enzyme); the Bradykinin production (Molar ratio of substrate to enzyme 20: 1) was 119.89 µg/mg (enzyme).

For the origin of these results see patent publication EP4470554A1, “USE OF KALLIKREIN I OR DERIVATIVE THEREOF IN TREATMENT OF VCI, PSCI OR CSVD” (Zonhon Biopharma Institute, Inc., priority 2022, dated 2023).
